According to the array DNA melting data of Ke et al.:

test: melting temperature; melt of duplexes; settings: sodium 0.0675 M; strand 1 µM

In order of rising Tm:
1. CGACGTGCACTATGTGCTG+CAGCACATCCGGCACGTCG ((((((((...((((((((+))))))))...))))))))  43.2 °C
2. CGACGTGCACCATGTGCTG+CAGCACATAACGCACGTCG ((((((((...((((((((+))))))))...))))))))  43.8 °C
3. CGACGTGCAGCATGTGCTG+CAGCACATCCCGCACGTCG ((((((((.(.((((((((+)))))))).).))))))))  46.3 °C
4. CGACGTGCAATATGTGCTG+CAGCACATCACGCACGTCG ((((((((...((((((((+))))))))...))))))))  46.8 °C
5. CGACGTGCAGCATGTGCTG+CAGCACATAAGGCACGTCG ((((((((...((((((((+))))))))...))))))))  47.6 °C
6. CGACGTGCAACATGTGCTG+CAGCACATCCGGCACGTCG ((((((((...((((((((+))))))))...))))))))  47.7 °C
7. CGACGTGCCTCATGTGCTG+CAGCACATCAAGCACGTCG ((((((((.(.((((((((+)))))))).).))))))))  47.9 °C
8. CGACGTGCTCTATGTGCTG+CAGCACATGTCGCACGTCG ((((((((...((((((((+))))))))...))))))))  48.1 °C
9. CGACGTGCCCGATGTGCTG+CAGCACATTCCGCACGTCG ((((((((...((((((((+))))))))...))))))))  48.2 °C
10. CGACGTGCTTAATGTGCTG+CAGCACATCCTGCACGTCG ((((((((...((((((((+))))))))...))))))))  48.4 °C
11. CGACGTGCACGATGTGCTG+CAGCACATTTTGCACGTCG (((((((((..((((((((+))))))))..)))))))))  48.5 °C
12. CGACGTGCAAAATGTGCTG+CAGCACATCTCGCACGTCG ((((((((.(.((((((((+)))))))).).))))))))  48.6 °C
13. CGACGTGCTCCATGTGCTG+CAGCACATTCAGCACGTCG (((((((((..((((((((+))))))))..)))))))))  48.7 °C
14. CGACGTGCGTCATGTGCTG+CAGCACATTCGGCACGTCG ((((((((...((((((((+))))))))...))))))))  48.7 °C
15. CGACGTGCTCCATGTGCTG+CAGCACATATGGCACGTCG ((((((((...((((((((+))))))))...))))))))  49 °C
16. CGACGTGCTAAATGTGCTG+CAGCACATCACGCACGTCG ((((((((...((((((((+))))))))...))))))))  49 °C
17. CGACGTGCCGTATGTGCTG+CAGCACATGTAGCACGTCG ((((((((...((((((((+))))))))...))))))))  49.1 °C
18. CGACGTGCGCAATGTGCTG+CAGCACATCCTGCACGTCG ((((((((...((((((((+))))))))...))))))))  49.2 °C
19. CGACGTGCTGTATGTGCTG+CAGCACATCCCGCACGTCG ((((((((.(.((((((((+)))))))).).))))))))  49.4 °C
20. CGACGTGCCCCATGTGCTG+CAGCACATGCTGCACGTCG ((((((((..(((((((((+)))))))))..))))))))  49.7 °C
21. CGACGTGCCGGATGTGCTG+CAGCACATATCGCACGTCG ((((((((...((((((((+))))))))...))))))))  49.7 °C
22. CGACGTGCTTTATGTGCTG+CAGCACATTGGGCACGTCG ((((((((...((((((((+))))))))...))))))))  49.8 °C
23. CGACGTGCCATATGTGCTG+CAGCACATGGCGCACGTCG ((((((((...((((((((+))))))))...))))))))  50.3 °C
24. CGACGTGCACCATGTGCTG+CAGCACATGCAGCACGTCG ((((((((..(((((((((+)))))))))..))))))))  50.4 °C
25. CGACGTGCCTTATGTGCTG+CAGCACATGAAGCACGTCG ((((((((.(.((((((((+)))))))).).))))))))  50.5 °C
26. CGACGTGCGTAATGTGCTG+CAGCACATATTGCACGTCG ((((((((...((((((((+))))))))...))))))))  50.5 °C
27. CGACGTGCGCCATGTGCTG+CAGCACATCCCGCACGTCG (((((((((..((((((((+))))))))..)))))))))  50.6 °C
28. CGACGTGCGATATGTGCTG+CAGCACATTAGGCACGTCG ((((((((...((((((((+))))))))...))))))))  50.8 °C
29. CGACGTGCGCAATGTGCTG+CAGCACATAAGGCACGTCG ((((((((...((((((((+))))))))...))))))))  50.9 °C
30. CGACGTGCGTGATGTGCTG+CAGCACATACTGCACGTCG ((((((((...((((((((+))))))))...))))))))  51.1 °C
31. CGACGTGCAAGATGTGCTG+CAGCACATTTAGCACGTCG ((((((((.(.((((((((+)))))))).).))))))))  51.1 °C
32. CGACGTGCAGGATGTGCTG+CAGCACATTTCGCACGTCG ((((((((...((((((((+))))))))...))))))))  51.1 °C
33. CGACGTGCCTCATGTGCTG+CAGCACATCCGGCACGTCG (((((((((..((((((((+))))))))..)))))))))  51.2 °C
34. CGACGTGCGGGATGTGCTG+CAGCACATTTGGCACGTCG ((((((((...((((((((+))))))))...))))))))  51.3 °C
35. CGACGTGCAGTATGTGCTG+CAGCACATCTGGCACGTCG ((((((((...((((((((+))))))))...))))))))  51.4 °C
36. CGACGTGCAATATGTGCTG+CAGCACATGTCGCACGTCG ((((((((.(.((((((((+)))))))).).))))))))  51.5 °C
37. CGACGTGCTACATGTGCTG+CAGCACATACAGCACGTCG (((((((((..((((((((+))))))))..)))))))))  51.5 °C
38. CGACGTGCTCGATGTGCTG+CAGCACATAGCGCACGTCG ((((((((.(.((((((((+)))))))).).))))))))  51.6 °C
39. CGACGTGCGGTATGTGCTG+CAGCACATCTGGCACGTCG ((((((((...((((((((+))))))))...))))))))  51.6 °C
40. CGACGTGCATTATGTGCTG+CAGCACATATGGCACGTCG ((((((((..(((((((((+)))))))))..))))))))  51.8 °C
41. CGACGTGCCTAATGTGCTG+CAGCACATGTAGCACGTCG ((((((((...((((((((+))))))))...))))))))  51.8 °C
42. CGACGTGCAATATGTGCTG+CAGCACATAAGGCACGTCG ((((((((..(((((((((+)))))))))..))))))))  51.9 °C
43. CGACGTGCTAAATGTGCTG+CAGCACATATGGCACGTCG ((((((((.(.((((((((+)))))))).).))))))))  52 °C
44. CGACGTGCAATATGTGCTG+CAGCACATGCAGCACGTCG ((((((((...((((((((+))))))))...))))))))  52.1 °C
45. CGACGTGCGTCATGTGCTG+CAGCACATAATGCACGTCG ((((((((.(.((((((((+)))))))).).))))))))  52.2 °C
46. CGACGTGCGATATGTGCTG+CAGCACATACTGCACGTCG ((((((((..(((((((((+)))))))))..))))))))  52.6 °C
47. CGACGTGCCGTATGTGCTG+CAGCACATAGCGCACGTCG ((((((((..(((((((((+)))))))))..))))))))  52.7 °C
48. CGACGTGCTCAATGTGCTG+CAGCACATGAGGCACGTCG ((((((((...((((((((+))))))))...))))))))  53 °C
49. CGACGTGCTATATGTGCTG+CAGCACATGAAGCACGTCG (((((((((..((((((((+))))))))..)))))))))  53.2 °C
50. CGACGTGCCAGATGTGCTG+CAGCACATCCCGCACGTCG ((((((((..(((((((((+)))))))))..))))))))  53.3 °C
51. CGACGTGCGATATGTGCTG+CAGCACATGCAGCACGTCG ((((((((...((((((((+))))))))...))))))))  53.6 °C
52. CGACGTGCTGAATGTGCTG+CAGCACATACTGCACGTCG ((((((((.(.((((((((+)))))))).).))))))))  53.7 °C
53. CGACGTGCGGTATGTGCTG+CAGCACATTCAGCACGTCG ((((((((.(.((((((((+)))))))).).))))))))  54.2 °C
54. CGACGTGCCAAATGTGCTG+CAGCACATCAGGCACGTCG (((((((((..((((((((+))))))))..)))))))))  54.2 °C
55. CGACGTGCGAGATGTGCTG+CAGCACATATTGCACGTCG ((((((((.(.((((((((+)))))))).).))))))))  54.4 °C
56. CGACGTGCTGGATGTGCTG+CAGCACATGCTGCACGTCG ((((((((.(.((((((((+)))))))).).))))))))  54.8 °C
57. CGACGTGCCGCATGTGCTG+CAGCACATGGCGCACGTCG ((((((((..(((((((((+)))))))))..))))))))  54.9 °C
58. CGACGTGCATCATGTGCTG+CAGCACATGTAGCACGTCG ((((((((..(((((((((+)))))))))..))))))))  55.3 °C
59. CGACGTGCGCGATGTGCTG+CAGCACATCTAGCACGTCG ((((((((..(((((((((+)))))))))..))))))))  55.5 °C
60. CGACGTGCTGTATGTGCTG+CAGCACATAAAGCACGTCG (((((((((.(((((((((+))))))))).)))))))))  55.5 °C
61. CGACGTGCCGGATGTGCTG+CAGCACATAGGGCACGTCG (((((((((..((((((((+))))))))..)))))))))  55.9 °C
62. CGACGTGCAGGATGTGCTG+CAGCACATCTAGCACGTCG ((((((((..(((((((((+)))))))))..))))))))  56 °C
63. CGACGTGCCAGATGTGCTG+CAGCACATTCGGCACGTCG (((((((((..((((((((+))))))))..)))))))))  56.2 °C
64. CGACGTGCAGAATGTGCTG+CAGCACATTTTGCACGTCG (((((((((.(((((((((+))))))))).)))))))))  57 °C
65. CGACGTGCCGAATGTGCTG+CAGCACATGTGGCACGTCG (((((((((..((((((((+))))))))..)))))))))  57.2 °C
66. CGACGTGCCAAATGTGCTG+CAGCACATTCGGCACGTCG (((((((((.(((((((((+))))))))).)))))))))  57.5 °C
67. CGACGTGCTGTATGTGCTG+CAGCACATACTGCACGTCG ((((((((.((((((((((+)))))))))).))))))))  57.8 °C
68. CGACGTGCGGAATGTGCTG+CAGCACATGGCGCACGTCG (((((((((..((((((((+))))))))..)))))))))  58.4 °C
69. CGACGTGCCCCATGTGCTG+CAGCACATGTGGCACGTCG (((((((((.(((((((((+))))))))).)))))))))  58.8 °C
70. CGACGTGCGCAATGTGCTG+CAGCACATAGCGCACGTCG ((((((((((.((((((((+)))))))).))))))))))  61.2 °C
71. CGACGTGCGGTATGTGCTG+CAGCACATGCCGCACGTCG ((((((((((.((((((((+)))))))).))))))))))  63.4 °C
72. CGACGTGCGCCATGTGCTG+CAGCACATGGCGCACGTCG (((((((((((((((((((+)))))))))))))))))))  68.7 °C
